Experimental findings from US12162924B2, “Method for the design of fibrillar collagen-mimetic peptide self-assemblies” (WISCONSIN ALUMNI RESEARCH FOUNDATION, priority 2016, dated 2024) are described below.

Several values for one entry are separate records, joined by “and”; a condition that tells them apart may be missing. Identical values can stand only once. Non-standard residues stand in square brackets, D forms with d. No end group written: not given here. Hyp = O=C(O)[C@@H]1C[C@@H](O)CN1; Orn = NCCC[C@H](N)C(=O)O A value given as a limit tells only on which side of the number the result lay.

Holding throughout (assay type): physicochemical
Series [1] can be described thus: CD thermal denaturation (melting temperature of triple-helical assemblies). Particulars: for Tm (° C.): Table 2, constructs that self-assemble. The procedure:
All CD data were acquired with a 202SF or 420 CD spectrophotometer from Aviv Biomedical (Lakewood, N.J.) at the UW BIF. Samples were prepared at a concentration of 0.6 mg/mL (˜160 μM) in 10 mM sodium phosphate buffer, pH 7.0, both with and without NaCl (180 mM). CD spectra were recorded at 4° C. with a 1-nm band-pass in quartz cuvettes with a 0.1-cm pathlength, using an averaging time of 4 s. For thermal denaturation experiments the CD signal was monitored at 226 nm while the sample was heated at a rate of 12° C./h in 2- or 3-° C. steps. The melting transition is indicated by a minimum on the temperature derivative of the melting curve (∂[θ]/∂T), and values (±1° C.) of melting temperature (Tm) were determined assuming constant curvature in the immediate vicinity of the transition minimum.

The nature of series [2]: Negative-stained (dry) TEM imaging of peptide assemblies. Particulars: for Feature dimensions (nm), nanofiber diameter by TEM: dried, negative-stained, mean±SD. The procedure: (§1) All imaging was performed with a Tecnai TF-30 TEM instrument (300 kV) from FEI (Hillsboro, Oreg.) at the UW Materials Science Center (MSC; msc.engr.wisc.edu). Samples were prepared on Quantifoil R1.2/1.3 holey-carbon mesh on copper grids. Sample preparation for dry TEM was carried out at 4° C. Samples were negative-stained using freshly prepared 2.0% w/w PTA solution adjusted to pH 6 with aqueous NaOH and filtered. The peptide solution was allowed to adhere to the carbon-mesh side of the grid for 1 min, at which point excess solution was blotted with filter paper, and the grid was allowed to dry for 5 min. Negative stain was applied for 10 min by inverting the grid on a drop of PTA solution. Excess stain was removed with filter paper, and the grid was allowed to dry overnight prior to imaging. For vitreous ice cryo-TEM imaging, a solution of OKD (0.3 mg/mL) was applied to a TEM grid, glow discharged for 0.5 min at 25 mA beforehand with a Pelco easiGlow unit from Ted Pella (Redding, Calif.). The grid was allowed to equilibrate at 5° C. at 95% humidity. A drop of peptide solution was added, and the grid was then blotted and immersed in liquid ethane on a Vitrobot from FEI. The grid was transferred from liquid ethane to liquid nitrogen manually, and was stored in liquid nitrogen until imaging. Acquisition was performed at −180° C. with low dose and long exposures.

Series [3] is described as follows: Vitreous ice cryo-TEM imaging. As to conditions: 0.3 mg/mL, flash frozen in liquid ethane. The procedure: as §1
Series [4] can be described thus: Tapping-mode atomic force microscopy on mica. As to conditions: annealed at 0.03 mg/mL, freshly cleaved mica. The method, then: Peptide samples were annealed at 0.03 mg/mL in 10 mM sodium phosphate buffer, pH 7.0, and applied onto freshly cleaved mica at 4° C. After 10 min, the solution of peptide was washed with cold water for 30 s, and excess water was removed with a filter paper. Samples were dried at 4° C. overnight prior to imaging. AFM images were collected in tapping mode with an Agilent 5500 SPM instrument using NCHV-A probes from Bruker (Billerica, Mass.). Data were analyzed with Gwyddion ver. 2.39 software (gwyddion.net).
Although the softness of the material led to artifacts and necessitated frequent use of fresh probes, the images clearly and consistently present the self-assembled OKD nanofibers.

Series [5] in a line: Rheology of peptide hydrogels / hydrogel formation. The procedure: This solution is placed in an airtight container, heated to 65° C. in a large water bath and annealed down to room temperature, overnight. The resulting hydrogel is subjected to rheological analysis (FIG. 15a).
Rheology on peptide hydrogels was performed on a TA ARES rheometer at the Soft Materials Laboratory at the University of Wisconsin—Madison, using 8-mm stainless-steel parallel-plate geometry with a 1 mm gap size. Strain sweeps (0.01-200%) maintained a fixed frequency of 2 rad/s, while a fixed strain of 1% was applied for frequency sweeps (0.1-100 rad/s).

Series [6] can be described thus: Evidence for symmetric self-assembly (AUC/CD/DLS/TEM/AFM/Rheology). As to conditions: Table 3. The source says: These peptides follow the following criteria for symmetric triple-helical self-assembly: • o. Peptides should embody the uninterrupted Xaa-Yaa-Gly tripeptide repeats of collagens • Peptides should be constructed to allow the formation of a polyproline-II helix. For this, their sequence should have a Gly at every third position. In addition, Pro residues should be favored at Xaa positions and Pro or Hyp residues at Yaa positions. Resulting peptides are collagen-mimetic peptides (CMPs). • i. Repulsive interstrand interactions should be installed to prevent the formation of the blunt-ended homotrimeric state. • CMPs are prone to forming blunt-ended triple helices, in general. This state should be destabilized to enable CMPs to associate with sticky-ends. • ii. The number of tripeptide repeats, nT, that constitute the CMP cannot be evenly divisible by three. • Satisfaction of this criterion is essential to obtain identical strand-offsets in the assembled state. […] This offset is nT residues for a peptide with nT tripeptide repeats. […] Thus, it is necessary to introduce attractive interstrand interactions to CMP designs that stabilize triple-helix formation only when they associate with nT-residue offsets.

Regarding “PKGPKGPKGPOGPOGDOGDOGDOGPOGPOGPO (PKGPKGPKGP[Hyp]GP[Hyp]GD[Hyp]GD[Hyp]GD[Hyp]GP[Hyp]GP[Hyp]GP[Hyp]) [Peptide 3sb-KDO]”, the “Tm (° C.)” value in series [1] was found to be 13 °C.

In the case of “PKGPKGPKGPOGPOGDOGDOGDOGPOGPOGPOG (PKGPKGPKGP[Hyp]GP[Hyp]GD[Hyp]GD[Hyp]GD[Hyp]GP[Hyp]GP[Hyp]GP[Hyp]G) [Peptide 3sbG-KDO]”, the “Tm (° C.)” value in series [1] stood at 26 °C.

For “POGPOGPCysGPKGPKGPKGPKGPOGPOGDOGDOGDOGDOGPOG (PXGPXGPCGPKGPKGPKGPKGPXGPXGDXGDXGDXGDXGPXG; hydroxyproline residues; MOD_RES (2)..(2) 4Hyp; MOD_RES (5)..(5) 4Hyp; MOD_RES (23)..(23) 4Hyp; MOD_RES (26)..(26) 4Hyp; MOD_RES (29)..(29) 4Hyp; MOD_RES (32)..(32) 4Hyp; MOD_RES (35)..(35) 4Hyp; MOD_RES (38)..(38) 4Hyp; MOD_RES (41)..(41) 4Hyp) [OKD2-C8]”, in series [1], the “Tm (° C.)” value was 45 °C.

In the case of “POGPOGPOGPKGPKGPKGPKGHcyOGPOGDOGDOGDOGDOGPOG (PXGPXGPXGPKGPKGPKGPKGXXGPXGDXGDXGDXGDXGPXG; homocysteine, hydroxyproline residues; MOD_RES (2)..(2) 4Hyp; MOD_RES (5)..(5) 4Hyp; MOD_RES (8)..(8) 4Hyp; MOD_RES (22)..(22) Homocysteine; MOD_RES (23)..(23) 4Hyp; MOD_RES (26)..(26) 4Hyp; MOD_RES (29)..(29) 4Hyp; MOD_RES (32)..(32) 4Hyp; MOD_RES (35)..(35) 4Hyp; MOD_RES (38)..(38) 4Hyp; MOD_RES (41)..(41) 4Hyp) [OKD2-h22]”, in series [1], the “Tm (° C.)” value is 50 °C.

In the case of “POGPOGPOGPKGPKGPKGPOGPOGDOGDOGDO (P[Hyp]GP[Hyp]GP[Hyp]GPKGPKGPKGP[Hyp]GP[Hyp]GD[Hyp]GD[Hyp]GD[Hyp]) [Peptide 3sb-OKD]”, the “Tm (° C.)” value in series [1] was 20 °C.

As for “POGPOGPOGPKGPKGPKGPOGPOGDOGDOGDOG (P[Hyp]GP[Hyp]GP[Hyp]GPKGPKGPKGP[Hyp]GP[Hyp]GD[Hyp]GD[Hyp]GD[Hyp]G) [Peptide 3sbG-OKD]”, in series [1], the “Tm (° C.)” value was found to be 33 °C.

As for “POGPOGPOGPOGPKGPKGPKGPKGPOGPOGDOGDOGDOGDO (P[Hyp]GP[Hyp]GP[Hyp]GP[Hyp]GPKGPKGPKGPKGP[Hyp]GP[Hyp]GD[Hyp]GD[Hyp]GD[Hyp]GD[Hyp]) [Peptide 4sb-OKD]”, in series [1], the “Tm (° C.)” value was 36 °C.

As to “POGPOGPOGPOGPKGPKGPKGPKGPOGPOGDOGDOGDOGDOG (PXGPXGPXGPXGPKGPKGPKGPKGPXGPXGDXGDXGDXGDXG; hydroxyproline residues; MOD_RES (2)..(2) 4Hyp; MOD_RES (5)..(5) 4Hyp; MOD_RES (8)..(8) 4Hyp; MOD_RES (11)..(11) 4Hyp; MOD_RES (26)..(26) 4Hyp; MOD_RES (29)..(29) 4Hyp; MOD_RES (32)..(32) 4Hyp; MOD_RES (35)..(35) 4Hyp; MOD_RES (38)..(38) 4Hyp; MOD_RES (41)..(41) 4Hyp) [OKD]”, the “Tm (° C.) I = 20 mM” value in series [1] (CD at 226 nm, 0.6 mg/mL, 10 mM sodium phosphate pH 7.0, low ionic strength I = 20 mM) was 49 °C. Also, the “Tm (° C.) I = 200 mM” value in series [1] (CD at 226 nm, 0.6 mg/mL, 10 mM sodium phosphate pH 7.0 with 180 mM NaCl, I = 200 mM) was determined as 39 °C. Moreover, in series [1], the “Tm (° C.)” value came to 49 °C. Moreover, the “length of triple-helical stretches” value in series [2] (TEM) is listed as at most 0.3 μm. Besides, the “Feature dimensions (nm), nanofiber diameter by TEM” value in series [2] came out at 2.3±0.4 nm. For the same molecule, the “diameter of solvated nanofibers (cryo-TEM)” value in series [3] is on record as 3.8±0.5 nm. Besides, in series [4], the “nanofiber length (AFM)” value is “up to 0.5 μm”; the “nanofiber thickness/diameter (AFM)” value was 1.2±0.2 nm and 1.2 nm. Also, in series [5] (4sbG series peptides), the hydrogel formation entry is given as “form hydrogels”. In series [5] (hydrogel at 1% concentration), the “G′ (storage modulus)” value turned out to be 0.5 kPa and the “G″ (loss modulus)” value is recorded as 0.05 kPa.

On to “POGPOGPOGPOrGPOrGPOrGPOGPOGDOGDOGDO (P[Hyp]GP[Hyp]GP[Hyp]GP[Orn]GP[Orn]GP[Orn]GP[Hyp]GP[Hyp]GD[Hyp]GD[Hyp]GD[Hyp]) [Peptide 3sb-OOrD]”, for which the “Evidence (constructs that do not reliably self-assemble)” value in series [6] is “no structure”.

B1: POGPOGPO…cyOGPOGDOGDOGDOGDOGPOG / POGPOGPCysGPKGPKGPKGPKGPOGPOGDOGDOGDOGDOGPOG (peptide)
chain 1: PXGPXGPXGPKGPKGPKGPKGXXGPXGDXGDXGDXGDXGPXG
chain 2: PXGPXGPCGPKGPKGPKGPKGPXGPXGDXGDXGDXGDXGPXG
modifications: not fully specified; homocysteine-cysteine crosslinked heterodimer; MOD_RES (2)..(2) 4Hyp; MOD_RES (5)..(5) 4Hyp; MOD_RES (8)..(8) 4Hyp; MOD_RES (22)..(22) Homocysteine; MOD_RES (23)..(23) 4Hyp; MOD_RES (26)..(26) 4Hyp; MOD_RES (29)..(29) 4Hyp; MOD_RES (32)..(32) 4Hyp; MOD_RES (35)..(35) 4Hyp; MOD_RES (38)..(38) 4Hyp; MOD_RES (41)..(41) 4Hyp
For B1, the “Tm (° C.)” value in series [1] is 60 °C. Moreover, in series [2], the “Feature dimensions (nm), nanofiber diameter by TEM” value is reported as 2.4±0.4 nm.
